According to publication PMC12747170:
pKd: −log10 of the molar value.

Target: JEV-ED3 protein (domain III of the Japanese encephalitis virus envelope protein, aa 303-398, C-terminal His-tag) (Japanese encephalitis virus)
Test: BLI

Substance: recombinant Human EGFR Protein (ECD, hFc Tag) (from UniProt P00533 25-645) (Fc fusion)
- pKd: 6.55
